{"source": "the nanobody polyreactivity screen of Harvey et al. (2022)", "data": [{"assay": "yeast display, Sf9 membrane polyspecificity reagent, FACS + sequencing; frameworks hold sequencing errors", "method_in_brief": "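Polyreactivity labels are assigned by the sorting gate from which each nanobody was recovered. The gates were low and high (top ~1%), set on anti-HA fluorescence for expression and streptavidin fluorescence for reagent binding. Before sorting, galactose-induced (36–48 hours) yeast display cells were stained for 1 hour at 4 °C with 10% biotinylated, detergent-solubilized Sf9 membrane reagent.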", "values": [{"sequence": "QVQLVESGVGIVQAGGSLRLSCAASGRIISGYAMGWYRHAPGKERELVATISSGGGTNYADSVKGRFTISRDNAKNTVYLQMNSLKPEDTAVYYCNKAWGYWSIRGVTHRYGYWGQGTQVTVSS", "polyreactivity (PSR sort gate)": "high polyreactivity"}, {"sequence": "QVQLVESGVGLVKAGGSLRLSCAASGSTFRGYAMGWYRQAPGKERELVAAITYISDTTNYADSVKGRFTISRDNAKNTVYLQMNSLKPDDTAVYYCNAYYDGVWRYTSQETGDHWGQGTQVTVSS", "polyreactivity (PSR sort gate)": "low polyreactivity"}, {"sequence": "QVQLVESGVGLVKAGGSLRLTCAASGSIFDNYPMGWYIQAPGKERELVAAISGRGGSTYYADSVKGRFTISRDNAKNSVYLQMNSLKPEVTAVYYCNALVHQTYYDYEYWGQGTQVTVSS", "polyreactivity (PSR sort gate)": "high polyreactivity"}, {"sequence": "QVQLVESGVGLVQAGGILRLSCAASGFIFCQYSMGWYRQAPWKERELVAAISSVGTTNYADSVKGSFTISRDNAKNTVYLQMNSLKPEDTAVYYCNADSLVEYWDYDYWGQGTQVTVSS", "polyreactivity (PSR sort gate)": "low polyreactivity"}, {"sequence": "QVQLVESGVGLVQAGGSHRFICAASGIIFYSYAMGWYRQAPGKEREFVAAITNSDGSTYYADTVKRRFTISRDNAKNTVYLQMNSLKPVDTAVYMYYWGQGTQVTVSS", "polyreactivity (PSR sort gate)": "low polyreactivity"}, {"sequence": "QVQLVESGVGLVQAGGSLLLSCAASGRTFSYNPMGSYRQAPGKERELVALISSGGSTNYADSVKGRFTISRDNAKNTVYLQMNSLKPEDTALYYCNAGSYVWEEDYWGQGTQVTVSS", "polyreactivity (PSR sort gate)": "high polyreactivity"}, {"sequence": "QVQLVESGVGLVQAGGSLPLSCAASGRTFRYYTMGSYRQAPGKERELVAAITQSGDSTYYADSVKGRFTISRDNAKNTFYLQMNSLKPEDTAVYYCNKAWRRRGLYDYWGQGTQVTVSS", "polyreactivity (PSR sort gate)": "high polyreactivity"}, {"sequence": "QVQLVESGVGLVQAGGSLRLICAATGYTFKRTAMRWSRQAPGKEREFVAAINIRGSSTYYADSVKGRFTISRDNPKNTVYLQMISLKPEDTAVYYCNAVTRYGYYWGEGTQVTVSS", "polyreactivity (PSR sort gate)": "high polyreactivity"}, {"sequence": "QVQLVESGVGLVQAGGSLRLSCAASGCIFIKYAMGWSRQAPGKERELVASITISSGRTYYADSVKGRFTISRDNAKNTVYLQMISLKPEDTAVYYCAAVSLWYSAYEYWGQGTQVTVSS", "polyreactivity (PSR sort gate)": "high polyreactivity"}, {"sequence": "QVQLVESGVGLVQAGGSLRLSCAASGFIFHRYAMGWYRQAPGKERELVAGITSSGGSTYYADSVKGRFTISRDNAKNTVYLQMNSLKPEDTAVYYCNADSWLYRFFGYDYWGQGTQVTVSS", "polyreactivity (PSR sort gate)": "low polyreactivity"}, {"sequence": "QVQLVESGVGLVQAGGSLRLSCAASGFIFYSYAMGWYRQAPGKERELVAAISRSGGITYYADSVKGRFTISRDNAKNTVYLQMNSLKPEDTAVYYCAKVGRGVSSIKDMDSWGQGTQVTVSS", "polyreactivity (PSR sort gate)": "high polyreactivity"}, {"sequence": "QVQLVESGVGLVQAGGSLRLSCAASGFTFRYYAMGWYRQAPGKERELVAAIRSGGRTYYADSVKGRFTISRDNAKNTVYLQMNSLKPEDTAVYYCNAKYKYSRGYDYWGQGTQVTVSS", "polyreactivity (PSR sort gate)": "high polyreactivity"}, {"sequence": "QVQLVESGVGLVQAGGSLRLSCAASGGIFVPYAMGWYRQAPGKEREWVARIRSGGTTNYADSVKGRFTISRDNAKNTVYLQRNSLKPEDTAVYYCAVAAGIPQRRDYYWGQGTQVTVSS", "polyreactivity (PSR sort gate)": "high polyreactivity"}, {"sequence": "QVQLVESGVGLVQAGGSLRLSCAASGGTFPYYAMGWYRQAPGKERELVAAISRSGARTYYADSVKGRFTISRDNAKNTVYLQMNSLKPEDTAVYYCATDNTYGYDYWGQGTQVTVSS", "polyreactivity (PSR sort gate)": "high polyreactivity"}, {"sequence": "QVQLVESGVGLVQAGGSLRLSCAASGIIFDDYAMGWYRQAPGKERELVAGINESGDSTYYADSVKGRFTISRDNAKNTVYLQMNSLKPEDTAVYYCAAQLYYWWYDYWGQGTQVTVSS", "polyreactivity (PSR sort gate)": "high polyreactivity"}, {"sequence": "QVQLVESGVGLVQAGGSLRLSCAASGIIFRYYAMGWYRQAPGKERELVAAISSSGVSTYYADSVKGRFTISRDNAKNTVYLQMNSLKPEDTAVYYCNAVIWVRQYFSRSSSNYWGQGTQVTVSS", "polyreactivity (PSR sort gate)": "high polyreactivity"}, {"sequence": "QVQLVESGVGLVQAGGSLRLSCAASGIIFYDYVMGWYRPAPGKEWELVAAISRSGGSTYYADSVKGRFTISRDNAKNTVYLQMNSLKPEDTAVYYCAADTVVTEMEYCGQGTQVTVSS", "polyreactivity (PSR sort gate)": "high polyreactivity"}, {"sequence": "QVQLVESGVGLVQAGGSLRLSCAASGISFLVYAMGWYRQAPGKERELVAAISADAGGTYYADSVKGRFTISRDNAKNNVYFQMNSLKPEDTAVYYCNVDGRSDGDDYWGQGTQVTVSS", "polyreactivity (PSR sort gate)": "low polyreactivity"}, {"sequence": "QVQLVESGVGLVQAGGSLRLSCAASGISFVGNAMGWYRQAPGKERELVASINSGGSTYYADSVKGRFTISRDNAKYTVYLQMNSLKPADTAVYYCAVEEDRYYYDDYDYWGQGTQVTVSS", "polyreactivity (PSR sort gate)": "low polyreactivity"}, {"sequence": "QVQLVESGVGLVQAGGSLRLSCAASGITFDENTMGWYIQAPGKERELVAAITEIGGSTYYADSVKGRFTISRDNAKNTVYLQMNSLKPEDTAVYYCNADRWVVRFVDYEYWGQGTQVTVSS", "polyreactivity (PSR sort gate)": "low polyreactivity"}, {"sequence": "QVQLVESGVGLVQAGGSLRLSCAASGITFRSYAMGWYRQAPGKERELVAAIRSGGSTSYADSVKGRFTISRDNAKNTVYLQMNSLKPEDTAVYYCAAGGYVPLPDITFWKFGYWGQGTQVTVSS", "polyreactivity (PSR sort gate)": "low polyreactivity"}, {"sequence": "QVQLVESGVGLVQAGGSLRLSCAASGLIFYKYAMGWYRQAPGKERELVAAITRGGGSTSYADSVKGRFTISRDNAKNTVYLQMNSLKPEDTAVYYCNAAPYTRALQGEFDYWGQGTQVTVSS", "polyreactivity (PSR sort gate)": "high polyreactivity"}, {"sequence": "QVQLVESGVGLVQAGGSLRLSCAASGLTFATNAMGWYRQAPGKERELVAAITGSGGSTNYADSVKGRFTISRDNAKNTVYLQMNSLKPEDTAVYYCAADLLWEPSRGYRGDYWGQGTQVTVSS", "polyreactivity (PSR sort gate)": "low polyreactivity"}, {"sequence": "QVQLVESGVGLVQAGGSLRLSCAASGNIFGVYAMGWYRQAPGKERELVATITTGGSTYYADSVKGRFTISRDNAKNTVYLQMNSLKPEDSAVYYCAADVGGGNYVYYGNDYDDGYWGQGTQVTVSS", "polyreactivity (PSR sort gate)": "low polyreactivity"}, {"sequence": "QVQLVESGVGLVQAGGSLRLSCAASGNTFTAYSMGWYRQAPGKERELVAAISSSGRTNYADSVKGRFTISRDNAKNTVYLQMNSLKPADTAVYYCAAAALRRNGVREGNYWGQGTQVTVSS", "polyreactivity (PSR sort gate)": "high polyreactivity"}, {"sequence": "QVQLVESGVGLVQAGGSLRLSCAASGRIFGAYAIGWYRQAPRKERELVAAISGSGGRTYYADSVKGRFTISRDSEKNTVYLQMNRLKPEDTAVYYCNKGYVYGHEYWGQGTQVTVSS", "polyreactivity (PSR sort gate)": "high polyreactivity"}, {"sequence": "QVQLVESGVGLVQAGGSLRLSCAASGRIFGVYVMGWYRQAPGKERELVAGISPSGGSTYYADSVKGRFTISRDNAKNTVYLQMNSLKPEDTAVYYCAAVLRIRRPRYGYWGQGTQVTVSS", "polyreactivity (PSR sort gate)": "high polyreactivity"}, {"sequence": "QVQLVESGVGLVQAGGSLRLSCAASGRIFRRYTMGWYRQPPGKERELVAAISASGGNTYYADSVKGRFTISRDNAKNTVYLQMNSLKPEDTAVYYCARRWRPWTQDGDDYWGQGTQVTVSS", "polyreactivity (PSR sort gate)": "high polyreactivity"}, {"sequence": "QVQLVESGVGLVQAGGSLRLSCAASGRIFTGYAMGWYRQAPGKERELVAAITSSGDGTNYADSVKGRFTISRDNAKNTVYLQMNSLKPEDTAVYYCNADGSYKMDWGQGTQVTVSS", "polyreactivity (PSR sort gate)": "low polyreactivity"}, {"sequence": "QVQLVESGVGLVQAGGSLRLSCAASGRIFYNNVRGWYRQAPGKERELVAGISGNGGSTYYPDSVKGRFTISRDNAKNTVYLQMNSPKPEDTAVYYCAARSSFRTLIFYQKFDYWGQGTQVTVSS", "polyreactivity (PSR sort gate)": "low polyreactivity"}, {"sequence": "QVQLVESGVGLVQAGGSLRLSCAASGRPFVAYAMGWYRQAPGTERELVARISSGGGTYADSVKGRFTISRDNAKNTVYLQMNSLKPEDTAVYYCATSLQRQFDYWGQGTQVTVSS", "polyreactivity (PSR sort gate)": "low polyreactivity"}, {"sequence": "QVQLVESGVGLVQAGGSLRLSCAASGRTFEPNAMGWYRHAPGKERELVAGITWSGGSTYYADSVKGRFTISRDNAKNTVYLQMNSLKPEDTAVYYCNAPITWKRSHYGYWGQGTQVTVSS", "polyreactivity (PSR sort gate)": "low polyreactivity"}, {"sequence": "QVQLVESGVGLVQAGGSLRLSCAASGRTFFGYAMGWYRQAPGKEREFVARISWRGTSTTYADSVKGRFTISRDNAKNTVYLQMNSLKPEDTAVYYCAASQYGLRVYFTVGYWGQGTQVTVSS", "polyreactivity (PSR sort gate)": "high polyreactivity"}, {"sequence": "QVQLVESGVGLVQAGGSLRLSCAASGRTFGVYAMGWYRQAPGKESTYYADSVKGRFTISRDNAKNTVYLQMNSLKPEDTAVYYCNARGGFGYITMDYWGQGTQVTVSS", "polyreactivity (PSR sort gate)": "low polyreactivity"}, {"sequence": "QVQLVESGVGLVQAGGSLRLSCAASGRTFISNVMGWYRQAPGKERELVAAISGSSGSTRYADSVKGRFTISRDNAKNTVYLQMISLKPEDTAVYYCAARAPWPKWGYYYWGQGTQVTVSS", "polyreactivity (PSR sort gate)": "high polyreactivity"}, {"sequence": "QVQLVESGVGLVQAGGSLRLSCAASGRTFSTNAMGWYIQAPGKERELVAAITSRGGSTYYADSVKGRFTISRDNAKNTVYLQMNSLKPEDTAVYYCAVDPLYSKTHYVTLGYYYWGQGTQVTVSS", "polyreactivity (PSR sort gate)": "low polyreactivity"}, {"sequence": "QVQLVESGVGLVQAGGSLRLSCAASGRTISYNARGWYRQAPGKEREFVADINYSAGSTYYADSVKGRFTISRDNAKNTGKLQMNRLKPEDTAVYYCAAKYYGEMYSWGQGTQVSVSS", "polyreactivity (PSR sort gate)": "low polyreactivity"}, {"sequence": "QVQLVESGVGLVQAGGSLRLSCAASGSIFDKNAMGWDRPAPGKERELVAAISRSGGSTYYADSVKGRFTISRDNAKNTVYLQMNSLKPEDTAVYYCNKYTNGRNFDYWGQGTQVTVSS", "polyreactivity (PSR sort gate)": "high polyreactivity"}, {"sequence": "QVQLVESGVGLVQAGGSLRLSCAASGSIFFKYAMGWYRQAPGKERELVAGITSTGRTYYADSVKGRFTISRDNAKNTVYLQMNSLKPEDTAVYYCNARTLPTYYRRYDYWGQGTQVTVSS", "polyreactivity (PSR sort gate)": "high polyreactivity"}, {"sequence": "QVQLVESGVGLVQAGGSLRLSCAASGSIFFPNAMGWYRQAPGKQRELVAAITSTSTNYAESVKGRCTISRDNAKNTVYLQMNSLKPEDTAVYYCAADGEFRRAWYEGDYWGQGTQVTVSS", "polyreactivity (PSR sort gate)": "low polyreactivity"}, {"sequence": "QVQLVESGVGLVQAGGSLRLSCAASGSIFSPNAMVWSRQAPGKERELVAAITWSGDSTYYADSVKGRFTISRDNAKNTVYLQINSLKREDTEVYYCAADFTYQGSSANDYWGQGSQVTVSS", "polyreactivity (PSR sort gate)": "low polyreactivity"}]}]}
